How the values were obtained:
[1] = tested on: yeast-induced fever model in rats; test: Yeast-induced fever model in SD rats; assay type: in vivo, rat; conditions: for Body temperature 2 hours after modeling: 2 h after 20% yeast s.c.; for Body temperature 4 hours after modeling: 4 h after 20% yeast s.c.; for Body temperature 6 hours after modeling: 6 h after 20% yeast s.c.; for Body temperature 8 hours after modeling: 8 h after 20% yeast s.c.; for Effect on increase in body temperature of model rats: vs model group P<0.05
Method: Experimental example 1 The pharmacodynamic test of protein BD-4 (the protein in Example 4) on the fever model of SD rats induced by yeast
• Normal control group; • Model group: yeast fever model; • Positive control group: Aspirin 300 mg/kg group; • Protein BD-4, 10 mg/kg group, 50 mg/kg group. Method:
Preparation of experimental animals: After the experimental animals adapt to the experimental environment (temperature 22° C.±2° C., relative humidity 50%±2%) for 1 day. Pre-adaptation to measure rectal temperature at 8:00 and 15:00, Rats were fasted and water was taken freely 12 h before experiment. let the animal to empty its feces before measuring the rectal temperature. Apply petroleum jelly to the electronic thermometer probe before each temperature measurement. Insert the rat rectum 2 cm (can be marked at 2 cm to ensure that the depth of each insertion is consistent), and record the body temperature after the reading is stable.
Subcutaneous injection of dry yeast to replicate rat fever model: The body temperature of the rats was measured before modeling. Qualified rats with a body temperature of 36.2-37.3° C. were selected and randomly divided into groups with 8 rats in each group. After oral administration of aspirin and different doses of protein BD-4, 20% yeast suspension (10 ml/kg) was injected subcutaneously immediately, and the normal control group was injected intraperitoneally with an equal volume of normal saline. the rats' body temperature was monitored after 2 hours for a total of 8 hours.
According to the body temperature measured at each time point on the day of the experiment, calculate the mean, standard deviation and standard error of the body temperature of each group of rats. The data of each group was compared with TTEST, and P<0.05 was considered as a significant difference.

[2] = tested on: PTZ-induced epilepsy in mice; test: Pentylenetetrazole (PTZ) induced epilepsy in mice; assay type: in vivo, mouse; conditions: for Grade IV seizure rate / mortality rate: 10 mice; for Grade IV seizure rate / mortality rate / Number of deaths / Number of Grade IV cases: PTZ 65 mg/kg i.p.; for Number of deaths / Number of Grade IV cases: of 10 mice; for Number of Grade IV cases: 15 min observation; for Level III onset latency / Grade IV onset latency: mean ± SEM; for Grade IV onset latency: no grade IV attack recorded as 900 s
Method: Experiment Grouping: • Model group; • Retigabine 60 mg/kg group; • Protein BD-4, 50 mg/kg group, 200 mg/kg group; Method: Model Preparation and Administration:
Administer once in the afternoon the day before modeling, On the day of modeling, intraperitoneal injection of PTZ-65 mg/kg (modeling agent) 1 hour after gavage of the test drug, the positive drug can be administered once half an hour before modeling. Continue to observe for 15 minutes after injection of PTZ.
Observation index: 1) Seizure condition: Onset time of grade III to grade VI; 2) Death situation
Onset level: Refer to Racine grading standard: Level 0: No response; Grade I: manifested as twitching of facial muscles or the corners of the mouth; Level II: Can nod; Grade III: twitching of one limb; Grade IV: Rigidity or body twitching; Grade V: Generalized epilepsy (Generalized tonic seizures).
Count the number of seizures and deaths in each group of mice in the experiment; Level III and IV incubation period. The incubation period of mice that have not attacked to grade IV is recorded as the maximum of 900 seconds. Chi-square test was used for statistics of the number of cases. Calculate the mean and standard error of the incubation period. Use TTEST to compare the model group with other groups, and P<0.05 is considered as a significant difference.

[3] = tested on: phenol red excretion in mice; test: Expectorant test, phenol red excretion method in mice; assay type: in vivo, mouse; conditions: for Phenol red excretion: X ± SEM
Method: Experimental example 5 The pharmacodynamic test of protein BD-4 (Example 4 protein) on the expectorant of phenol red excretion method in mice.
• Solvent control group; • Mucosultan 30 mg/kg group; • Protein BD-4, 20 mg/kg group, 50 mg/kg group. Method: Model Preparation and Administration:
The animals were fasted and watered 16 hours before the experiment. Orally administered Mucosultan and different doses of protein BD-4 (administration volume 10 ml/kg) in groups, and the solvent control group was given the same volume of distilled water. One hour later, 2.5% phenol red solution was injected intraperitoneally, Kill the mouse by removing the neck after 30 minutes. Take the trachea from below the thyroid cartilage to the branch of the trachea. Put the trachea into 3 ml 5% NaHCO3 solution and let it stand for 3 hours. Take 1 ml of the supernatant and centrifuge at 3000 rpm for 5 minutes. Measure and record the absorbance at 546 nm. According to the standard curve of phenol red, the excretion of phenol red was calculated.
Record the time point of oral administration, the time point of intraperitoneal injection of 2.5% phenol red solution, and the time point of tracheal extraction respectively; The absorbance of each group of samples was measured by the microplate reader at 546 nm, Calculate the excretion of phenol red according to the standard curve of phenol red. Calculate the mean and standard error of the data in each group, use TTEST to compare the solvent control group with other groups, and P<0.05 is considered as a significant difference.

B1: BD-4: recombinant keratin, amino acid sequence SEQ ID NO: 1, expressed in E. coli; the protein of Example 4 was tested (protein, listed as Bos taurus)
chain: MSYSCCLPNLSFRSSCSSRPCVPSSCCGTTLPGACNIPANVGSCNWFCEGSFNGSEKETMQFLNDRLASYLEKVRQLERDNAELESRILERSQQQEPLVCPNYQSYFRTIEELQQKILCSKSENARLVVQIDNAKLASDDFRTKYETEVSLRQLVEADLNGLRRILDELTLCKSDLEARVESLKEELICLKQNHEQEVNTLRSQLGDRLNVEVDAAPTVDLNRVLNETRAQYEALVETNRRDVEEWYIRQTEELNKQVVSSSEQLQSYQAEIIELRRTVNALEVELQAQHNLRDSLENTLTETEARYSCQLAQVQGLIGNVESQLAEIRSDLERQNQEYQVLLDVRARLECEINTYRGLLDSEDCKLPCNPCATTNACERPCISNPCVSRARCGPCNTFVH
- Body temperature 2 hours after modeling ([1]; 10 mg/kg oral): 36.7 ± 0.1 °C
- Body temperature 4 hours after modeling ([1]; 10 mg/kg oral): 37.1 ± 0.1 °C
- Body temperature 6 hours after modeling ([1]; 10 mg/kg oral): 37.6 ± 0.1 °C
- Body temperature 8 hours after modeling ([1]; 10 mg/kg oral): 37.6 ± 0.2 °C
- Effect on increase in body temperature of model rats ([1]; 10 mg/kg, 4 hour after modeling): significantly inhibit the increase in body temperature
- Body temperature 2 hours after modeling ([1]; 50 mg/kg oral): 36.6 ± 0.1 °C
- Body temperature 4 hours after modeling ([1]; 50 mg/kg oral): 37.4 ± 0.1 °C
- Body temperature 6 hours after modeling ([1]; 50 mg/kg oral): 37.5 ± 0.1 °C
- Body temperature 8 hours after modeling ([1]; 50 mg/kg oral): 37.6 ± 0.1 °C
- Effect on increase in body temperature of model rats ([1]; 50 mg/kg, 8 hours after modeling): significantly inhibit the increase in body temperature
- Epilepsy grade III incubation period, comparison with model group ([2]; 50 mg/kg): statistically different from the model group
- Grade IV seizure rate ([2]; 50 mg/kg gavage): 80%
- mortality rate ([2]; 50 mg/kg gavage): 10%
- Number of deaths ([2]; 50 mg/kg gavage): 1
- Number of Grade IV cases ([2]; 50 mg/kg gavage): 8
- Level III onset latency ([2]; 50 mg/kg): 91 ± 12 s
- Grade IV onset latency ([2]; 50 mg/kg): 308 ± 103 s
- Epilepsy grade III incubation period, comparison with model group ([2]; 200 mg/kg): statistically different from the model group
- Grade IV seizure rate ([2]; 200 mg/kg gavage): 70%
- mortality rate ([2]; 200 mg/kg gavage): 0
- Number of deaths ([2]; 200 mg/kg gavage): 0
- Number of Grade IV cases ([2]; 200 mg/kg gavage): 7
- Level III onset latency ([2]; 200 mg/kg): 89 ± 8 s
- Grade IV onset latency ([2]; 200 mg/kg): 493 ± 113 s
- Phenol red excretion ([3]; 20 mg/kg oral): 0.898 ± 0.076 µg/mL
- Phenol red excretion vs solvent control group ([3]; 20 mg/kg, P<0.05): significantly increased
- Phenol red excretion ([3]; 50 mg/kg oral): 0.775 ± 0.101 µg/mL

Source: US12098176B2, “Keratin BD-4, preparation method, and pharmaceutical composition and use thereof” (Institute of Materia Medica, Chinese Academy of Medical …, priority 2019, dated 2024)
